Patent publication US20240392003A1 (NUMAB THERAPEUTICS, published 2024)
Positions count from the first letter of the chain named. Names may count otherwise. Where two headings read alike, the source gives them in different places.

B1: PRO2508 (bispecific antibody)
chain: AFELTQSPSSLSASVGDRVTITCQASESINSRLAWYQQKPGQPPKLLIYDASDLTSGVPSRFSGSGSGTDFTLTISSLQPEDFATYYCQGYGGSSTTTFGCGTKLTVLGGGGGSEVQLVESGGGLVQPGGSLRLSCAASGFSLSSYDMSWVRQAPGKGLAWIGASYASGPTYYASWAKGRFTISRDNSKNTVYLQMNSLRAEDTATYFCARGGWTGTSHSNIWGQGTLVTVSSGGGGSGGGGSGGGGSGGGGSDIQMTQSPSSLSASVGDRVTITCQSSQSVFSNNYLAWFQQKPGQSPKRLIYSASTLASGVPSRFSGSGSGTDFTLTISSLQPEDFATYYCLGSYACSSADCYVFGTGTKVTVLGGGGGSEVQLVESGGGLVQPGGSLRLSCAASGFSLSSYAMNWVRQAPGKCLEWIGHINAGDIAYYATWAKGRFTISRDNSKNTVYLQMNSLRAEDTAVYFCARGAGGFSTGPFKLWGQGTLVTVSSGGGGSGGGGSDVQMTQSPSSLSASVGDRVTITCRASENIYSGLAWYQQKPGKPPKLLIYRASTLASGVSSRFSGSGSGTDFTLTISSLQPEDFATYYCQGGYYSSSSTYIAFGCGTKVTVLGGGGGSGGGGSGGGGSGGGGSQSQVVESGGGLVQPGGSLRLSCAVSGFDLSSYAVSWVRQAPGKCLEWIGIIYPRANTYYASWAKGRFTISKDNSKNTVYLQMNSLRAEDTAVYFCARDRYDSGAYLYTTYFNLWGQGTLVTVSS
notes: trispecific anti-ROR1 x hSA x CD3 scMATCH3, single chain; also called 19-04-A10-sc06 scDb-o/28-21-D09-sc04 scDb-i/55-38-D07-sc06-scFv
B2: PRO2667 (bispecific antibody)
chain: B1 chain with L125R, L228Q, L383R, V464T, L487Q, C606T, L645R, C678G, V726T, L753Q
notes: trispecific anti-ROR1 x hSA x CD3 scMATCH3, single chain, modified VH domains; also called 19-04-A10-sc06(RTQ) scDb-o/28-21-D09-sc04 (RTQ) scDb-i/55-38-D07-sc02(RTQ)-scFv
B3: PRO2669 (bispecific antibody)
chain 1: DVQMTQSPSSLSASVGDRVTITCRASENIYSGLAWYQQKPGKPPKLLIYRASTLASGVSSRFSGSGSGTDFTLTISSLQPEDFATYYCQGGYYSSSSTYIAFGTGTKVTVLGGGGGSGGGGSGGGGSGGGGSQSQVVESGGGRVQPGGSLRLSCAVSGFDLSSYAVSWVRQAPGKGLEWIGIIYPRANTYYASWAKGRFTISKDNSKNTVYLQMNSLRAEDTATYFCARDRYDSGAYLYTTYFNLWGQGTQVTVSSGGGGSGGGGSAFELTQSPSSLSASVGDRVTITCQASESINSRLAWYQQKPGQPPKLLIYDASDLTSGVPSRFSGSGSGTDFTLTISSLQPEDFATYYCQGYGGSSTTTFGCGTKLTVLGGGSGGSDIQMTQSPSSLSASVGDRVTITCQSSQSVFSNNYLAWFQQKPGQSPKRLIYSASTLASGVPSRFSGSGSGTDFTLTISSLQPEDFATYYCLGSYACSSADCYVFGTGTKVTVLG
chain 2: DVQMTQSPSSLSASVGDRVTITCRASENIYSGLAWYQQKPGKPPKLLIYRASTLASGVSSRFSGSGSGTDFTLTISSLQPEDFATYYCQGGYYSSSSTYIAFGTGTKVTVLGGGGGSGGGGSGGGGSGGGGSQSQVVESGGGRVQPGGSLRLSCAVSGFDLSSYAVSWVRQAPGKGLEWIGIIYPRANTYYASWAKGRFTISKDNSKNTVYLQMNSLRAEDTATYFCARDRYDSGAYLYTTYFNLWGQGTQVTVSSGGGGSGGGGSEVQLVESGGGRVQPGGSLRLSCAASGFSLSSYDMSWVRQAPGKGLAWIGASYASGPTYYASWAKGRFTISRDNSKNTVYLQMNSLRAEDTATYFCARGGWTGTSHSNIWGQGTQVTVSSGGGSGGGSGGGSGEVQLVESGGGRVQPGGSLRLSCAASGFSLSSYAMNWVRQAPGKCLEWIGHINAGDIAYYATWAKGRFTISRDNSKNTVYLQMNSLRAEDTATYFCARGAGGFSTGPFKLWGQGTQVTVSS
notes: heterodimeric MATCH4, modified VH domains, variant of PRO2589; also called MATCH4 with 55-38-D07-sc02(RTQ) / 19-04-A10-sc02(RTQ) diS / 28-21-D09-sc04(RTQ) / 55-38-D07-sc02(RTQ)
B4: PRO2291 (scFv, V domains shown)
VH: QSQVVESGGGLVQPGGSLRLSCAVSGFDLSSYAVSWVRQAPGKCLEWIGIIYPRANTYYASWAKGRFTISKDNSKNTVYLQMNSLRAEDTAVYFCARDRYDSGAYLYTTYFNLWGQGTLVTVSS
VL: DVQMTQSPSSLSASVGDRVTITCRASENIYSGLAWYQQKPGKPPKLLIYRASTLASGVSSRFSGSGSGTDFTLTISSLQPEDFATYYCQGGYYSSSSTYIAFGCGTKVTVLG
notes: scFv, PRO2060 with VL-VH interdomain disulfide (AHo 141VL-51VH); also called 55-38-D07-sc06
B5: PRO2292 (scFv, V domains shown)
VH: QSQLVESGGGLVQPGGSLRLSCAVSGLSLSRNAMSWVRQAPGKCLEWIGIILTSGSTYYASWAKGRFTISKDNSKNTVYLQMNSLRAEDTAVYFCVRGIASSSLKSFWGQGTLVTVSS
VL: AQQLTQSPSSLSASVGDRVTITCQASQNVWNNNYLSWFQQKPGKPPKLLIVTASTLASGVSSRFSGSGSGTDFTLTISSLQPEDFATYYCAGGFSGEIRAFGCGTKVTVLG
notes: scFv, PRO2062 with VL-VH interdomain disulfide (AHo 141VL-51VH); also called 55-39-G02-sc05
B6: PRO2558 (bispecific antibody)
chain: AFELTQSPSSLSASVGDRVTITCQASESINSRLAWYQQKPGQPPKLLIYDASDLTSGVPSRFSGSGSGTDFTLTISSLQPEDFATYYCQGYGGSSTTTFGCGTKLTVLGGGGGSEVQLVESGGGLVQPGGSLRLSCAASGFSLSSYDMSWVRQAPGKGLAWIGASYASGPTYYASWAKGRFTISRDNSKNTVYLQMNSLRAEDTATYFCARGGWTGTSHSNIWGQGTLVTVSSGGGGSGGGGSGGGGSGGGGSDIQMTQSPSSLSASVGDRVTITCQSSQSVFSNNYLAWFQQKPGQSPKRLIYSASTLASGVPSRFSGSGSGTDFTLTISSLQPEDFATYYCLGSYACSSADCYVFGTGTKVTVLGGGGGSEVQLVESGGGLVQPGGSLRLSCAASGFSLSSYAMNWVRQAPGKCLEWIGHINAGDIAYYATWAKGRFTISRDNSKNTVYLQMNSLRAEDTAVYFCARGAGGFSTGPFKLWGQGTLVTVSS
modifications: Interdomain disulfide in the hSA domain (VH G51C / VL G141C, AHo numbering).
notes: also called 19-04-A10-sc06 scDb-o/28-21-D09-sc04 scDb-i/56-22-A05-sc02 scFv; not shown: C-terminal 56-22-A05-sc02 scFv and the linker leading to it

Legend:
[1] = target: T1, recombinant human CD3 epsilon extra-cellular domain protein (His-Tag, SinoBiological) (human, UniProt P07766 23-126); assay: SPR; hCD3ε immobilized, two-state fit (kd1)
T1 construct: extracellular domain; Bought; also called hCD3ε; human CD3ε; not shown: His tag

[2] = target: T2, recombinant human ROR1 protein (Fc-Tag, Acro Biosystems RO1-H5250) (human, UniProt Q01973 30-406); assay: SPR; hROR1-Fc immobilized
T2 construct: Bought; also called hROR1; recombinant human ROR1 ECD; not shown: Fc tag

[3] = target: T3, human ROR1 expressed on cells (human, UniProt Q01973 30-937); assay: flow cytometry, MDA-MB-231 cells, 1 mg/ml hSA
T3 construct: whole, on cells; One molecule for cell-surface ROR1 on all cell lines; the cell line is named under assay; also called hROR1; plasma membrane human ROR1

[4] = target: T1, recombinant human CD3 epsilon …; assay: SPR; hCD3ε immobilized, two-state fit (ka1)
[5] = target: T3, human ROR1 expressed on cells; assay: cell-based or functional assay
[6] = target: T1, recombinant human CD3 epsilon …; assay: SPR; hCD3ε immobilized, two-state fit
[7] = target: T2, recombinant human ROR1 protein (Fc-Tag, …); assay: SPR; hROR1-Fc immobilized (Avidity)
[8] = target: T1, recombinant human CD3 epsilon …; assay: SPR; hCD3ε immobilized, two-state fit; remark: listed apart in the source
[9] = target: T1, recombinant human CD3 epsilon …; assay: SPR; hCD3ε immobilized, two-state fit (Ka1)
[10] = target: T4, human ROR1 (Peprotech 160-054) (human, UniProt Q01973 30-406); assay: SPR; MATCH4 captured, hROR1 analyte (Affinity)
T4 construct: Bought, used as analyte; also called hROR1; recombinant human ROR1 protein

[11] = target: T1, recombinant human CD3 epsilon …; assay: SPR; hCD3ε immobilized, two-state fit (kd1); remark: listed apart in the source
[12] = target: T3, human ROR1 expressed on cells; assay: flow cytometry, MDA-MB-231 cells
[13] = target: T2, recombinant human ROR1 protein (Fc-Tag, …); assay: SPR; hROR1-Fc immobilized; remark: listed apart in the source
[14] = target: T5, human serum albumin (Sigma-Aldrich A3782) (human, UniProt P02768 25-609); assay: SPR; hSA immobilized, pH 5.5
T5 construct: also called hSA; HSA

Row | Binder | koff [1] [s⁻¹] | Kd [2] [nM] | koff [2] [s⁻¹] | kon [2] [M⁻¹ s⁻¹] | kon [4] [M⁻¹ s⁻¹] | Kd [6] [nM] | ka2 [6] [s⁻¹] | kd2 [6] [s⁻¹] | EC50 [12] [nM] | Rel. maximum binding (MFIscFv/MFIPRO2213) [12] | Kd [13] [nM] | koff [13] [s⁻¹] | kon [13] [M⁻¹ s⁻¹] | further results
1 | B1 | 0.0062 | ≤ 0.13 | < 1e-05 | 76000 | 380000 | 8.5 | 0.0068 | 0.0074 | – | – | – | – | – | EC50 [3]: 18.7 nM; Rel. maximum binding (MFIscMATCH3/MFIPRO2213) [3]: 3; EC50 (nM) Cytotoxicity (MDA-MB-231) [5]: 1.7 nM
2 | B2 | 0.0041 | 0.97 | 9.2e-05 | 95000 | 540000 | 4.4 | 0.0045 | 0.0061 | – | – | – | – | – | –
3 | B3 | – | – | – | – | – | – | – | – | – | – | – | – | – | Kd [7]: 0.026 nM; koff [7]: 2.6e-05 s⁻¹; kon [7]: 1e+06 M⁻¹ s⁻¹; Ka2 [8]: 0.0056 s⁻¹; Kd [8]: 2.7 nM; Kd2 [8]: 0.0047 s⁻¹; kon [9]: 810000 M⁻¹ s⁻¹; Kd [10]: ≤ 0.177 nM; koff [10]: < 1e-05 s⁻¹; kon [10]: 56600 M⁻¹ s⁻¹; koff [11]: 0.0047 s⁻¹
4 | B4 | – | – | – | – | – | – | – | – | 2.74 | 1.18 | 1.12 | 0.000302 | 269000 | –
5 | B5 | – | – | – | – | – | – | – | – | 0.27 | 1.18 | 0.0906 | 0.000616 | 6.8e+06 | –
6 | B6 | – | – | – | – | – | – | – | – | – | – | – | – | – | Kd [14]: 4.4 nM; koff [14]: 0.002 s⁻¹; kon [14]: 460000 M⁻¹ s⁻¹
